The text below walks through data of FireProtDB.

B1: Ribose import binding protein RbsB, P02925 (parent)
chain: MNMKKLATLVSAVALSATVSANAMAKDTIALVVSTLNNPFFVSLKDGAQKEADKLGYNLVVLDSQNNPAKELANVQDLTVRGTKILLINPTDSDAVGNAVKMANQANIPVITLDRQATKGEVVSHIASDNVLGGKIAGDYIAKKAGEGAKVIELQGIAGTSAARERGEGFQQAVAAHKFNVLASQPADFDRIKGLNVMQNLLTAHPDVQAVFAQNDEMALGALRALQTAGKSDVMVVGFDGTPDGEKAVNDGKLAATIAQLPDQIGAKGVETADKVLKGEKVQAKYPVDLKLVVKQ
B2: Alpha-lactalbumin, P00712 (parent)
chain: MMSFVSLLLVGILFHATQAEQLTKCEVFQKLKDLKDYGGVSLPEWVCTAFHTSGYDTQAIVQNNDSTEYGLFQINNKIWCKDDQNPHSRNICNISCDKFLDDDLTDDIVCAKKILDKVGINYWLAHKALCSEKLDQWLCEKL
B3: Tissue factor, P13726 (parent)
chain: METPAWPRVPRPETAVARTLLLGWVFAQVAGASGTTNTVAAYNLTWKSTNFKTILEWEPKPVNQVYTVQISTKSGDWKSKCFYTTDTECDLTDEIVKDVKQTYLARVFSYPAGNVESTGSAGEPLYENSPEFTPYLETNLGQPTIQSFEQVGTKVNVTVEDERTLVRRNNTFLSLRDVFGKDLIYTLYYWKSSSSGKKTAKTNTNEFLIDVDKGENYCFSVQAVIPSRTVNRKSTDSPVECMGQEKGEFREIFYIIGAVVFVVIILVIILAISLHKCRKAGVGQSWKENSPLNVS
B4: Phosphoglycerate kinase, P00560 (parent)
chain: MSLSSKLSVQDLDLKDKRVFIRVDFNVPLDGKKITSNQRIVAALPTIKYVLEHHPRYVVLASHLGRPNGERNEKYSLAPVAKELQSLLGKDVTFLNDCVGPEVEAAVKASAPGSVILLENLRYHIEEEGSRKVDGQKVKASKEDVQKFRHELSSLADVYINDAFGTAHRAHSSMVGFDLPQRAAGFLLEKELKYFGKALENPTRPFLAILGGAKVADKIQLIDNLLDKVDSIIIGGGMAFTFKKVLENTEIGDSIFDKAGAEIVPKLMEKAKAKGVEVVLPVDFIIADAFSADANTKTVTDKEGIPAGWQGLDNGPESRKLFAATVAKAKTIVWNGPPGVFEFEKFAAGTKALLDEVVKSSAAGNTVIIGGGDTATVAKKYGVTDKISHVSTGGGASLELLEGKELPGVAFLSEKK

In one data set the parent is B1. Conditions: Escherichia coli (strain K12); pH 7.7; 25 °C; GdnHCl; Fluorescence; HEPES 10 mM; reversible: yes; structure 2DRI; whole UniProt chain shown.
Take A52T: the unfolding free energy was 1.8 kcal/mol.

Variants of B2 are the subject of a further data set. Conditions: Capra hircus; pH 7; 25 °C; Thermal; CD; sodium cacodylate 50 mM; CaCl2 1 mM; structure 1HFY; whole UniProt chain shown.
Take T48V: the “ddG of mutation (higher = less stable)” value is -1.86 kcal/mol.
On the same count and under the same terms, as for T48I, the figure is -1.37 kcal/mol.

Another data set covers variants of B3. Conditions: Homo sapiens; pH 7.5; 23 °C; GdnHCl; Fluorescence; Tris-HCl 50 mM; reversible: yes; structure 1BOY; whole UniProt chain shown.
On to R232W, for which the “ddG of mutation (higher = less stable)” value is -0.6 kcal/mol, the “denaturant midpoint (higher = more stable)” value amounted to 1.37 M and the unfolding free energy amounted to 6.9 kcal/mol.

In a further data set the parent is B4. The settings on record: Saccharomyces cerevisiae (strain ATCC 204508 / S288c); pH 6.2; 20 °C; GdnHCl; CD; potassium phosphate 50 mM; structure 3PGK; whole UniProt chain shown.
As for W309F W334F Y123W, the denaturant m value turned out to be 14 kcal/mol/M and the unfolding free energy stood at 5.71 kcal/mol.
For the variant W309F, the denaturant m value came to 18 kcal/mol/M and the unfolding free energy worked out at 10.3 kcal/mol.

The same data set, now with this note: Saccharomyces cerevisiae (strain ATCC 204508 / S288c); pH 6.2; 20 °C; Thermal; CD; potassium phosphate 20 mM; structure 3PGK; whole UniProt chain shown.
In the case of W309F W334F Y123W, the unfolding free energy is 5.23 kcal/mol.
Same read-out and setting: the result for W309F reads 5.43 kcal/mol; that for W334F, 5.16 kcal/mol.

The data set is the same for the next values; noted with them: Saccharomyces cerevisiae (strain ATCC 204508 / S288c); pH 6.5; 25 °C; GdnHCl; CD; Sodium phosphate 20 mM; reversible: yes; structure 3PGK; whole UniProt chain shown.
For H389Q, the “ddG of mutation (higher = less stable)” value was determined as 0.84 kcal/mol, the denaturant m value was determined as 6.08 kcal/mol/M and the unfolding free energy is 2.99 kcal/mol.

The data set is the same for the next values; noted with them: Saccharomyces cerevisiae (strain ATCC 204508 / S288c); pH 7.5; 22 °C; GdnHCl; CD; Tris 20 mM; structure 3PGK; whole UniProt chain shown.
Turning to W309Y, the “ddG of mutation (higher = less stable)” value was 3.6 kcal/mol, the “denaturant midpoint (higher = more stable)” value was found to be 0.55 M and the unfolding free energy stood at 4.2 kcal/mol.
For W334F, in that order: -2.2 kcal/mol, 0.64 M and 10 kcal/mol.
